In the RNAGym collection of RNA variant scans (doi:10.7554/elife.90254):

B1: OR4K15 (parent)
chain: GUUAACGGUCAUAGGCCAUGGAAACUAGGAGCACCAUUUCGCUGCCAGUGAAGAAAUGAACAAAGAAAAUCUGGGCCAGGCAGGCAUCAAAAGAAAUAGUCUUGCGCUCAACCAGAAAGUCUGUAAUCAUUUUAAGGGUA
B2: LINE1-full (parent)
chain: UACGUAGGUGGUUUUCCCCUGAUAGUGCUAAGGGGGCCUGGAAGUUUGGACUGGGCAGAGCUCAACACAGCGUGGCAAAGUGGCUGUGGCUAGACUGCCUCUCUGGAUUCCUCGUCACUCAGCAGGGCAUCUCUGAGAGAAAUGCC

Variants of: B1
Assay: self-cleavage, relative activity (ratio to wild type); higher = more cleavage; in vitro, sequencing; the parent is a self-cleaving ribozyme

Variant	self-cleavage
U2A U43C	0.84
U2C A63G	1.12
G1U A63G	0.92
G1C A111G	0.01
U2C A60G	1.02
G1A A114G	1.32
G1A A114U	0.26
G1C A135G	1.85
U2A U139A	1.04
U2A U139G	0.81
U2A G65A	0.89
U2A A98G	0.1
U2C A23U	1.22
U2A U131C	0.69
U2C A30U	0.98
U2C A30C	1.44
U2A A18U	1.37
U2A U39C	1.26
G1U A92G	1.91
G1C A91G	0.65
U2A U37C	1.34
U2C A11G	1.16
U2A A54G	0.63
U2A A91G	0.7

Variant	self-cleavage
U2A A64G	1.24
U2A U57C	0.92
G1A A13C	1.66
G1A A13G	1.29
U2C A59U	0.98
U2C A59G	0.91
G1U A94G	0.76
U2A A51G	0.51
U2A A60C	1.97
U2A A60G	1.13
G1A U43C	2.15
G1A A59G	1.36
U2A A69G	1.62
U2A A22G	1.33
G1U A69U	1.22
U2A A63U	1.62
G1U A54G	1.44
U2C A62C	1.39
U2C A62G	0.36
U2A A126G	0.81
G1A A64G	2.27
U2A A56G	0.89
U2A U72C	0.48
U2A U130C	0.85

Variant	self-cleavage
U2A A90U	1.25
U2C A18U	0.37
U2C A18G	0.6
U2A A134G	1.65
U2A U70C	0.67
U2A A95G	1.21
U2A A95U	0.86
U2C A52G	1.19
U2C A52C	1.25
U2A U38C	1.82
U2A C10U	0.88
U2A U12C	1.41
U2A A62G	1.23
U2A U9C	1.52
U2C A33U	1.24
U2C A33G	0.74
U2A U102C	1.15
U2A U49A	1.64
U2A A117G	0.59
U2A A117U	0.49
G1A U102G	1.23
U2C A56G	1.12
U2C A24U	1.45
U2C A24C	1.16

Variant	self-cleavage
G1U A52G	1.83
U2C A27G	0.85
U2A A116G	0.75
U2A A116U	0.18
G1A U37C	1.61
U2A U122C	0.72
U2A A68U	0.46
U2A A68G	0.8
U2C A5U	1.16
U2A G44C	0.79
G1A	1.55
G1U	1.07
U2C A36U	1.11
U2C A36G	1.25
U2A A23U	1.24
G1U A95G	0.56
G1U U139C	0.98
U2A A89G	1.07
U2A A47U	0.78
U2A A47G	1.42
U2A A114U	0.33
U2C A13U	1.78

Variants of: B2
Assay: as above

Variant	self-cleavage
U132A G137A	1.7
G125A U143C	0.64
A141U U143A	0.6
C133U A138C	1.74
A142G C145U	1.11
A124G G135U	1.49
U143A G144A	1.4
G127U A140G	1.27
G127A U132C	0.78
A124U A140U	1.09
A136U A138U	0.99
U134G U143G	0.88
G137U U143C	1.04
U130C A142G	1.37
U130C A142U	1.6
G126A A140G	1.49
U130A A138U	1.64
U130A A138G	1.31
A124U U130A	1.7
A124U U130C	1.66
U134A A141U	1.12
C133A A136U	1.38
A142G U143G	0.16
U130A A141G	1.46

Variant	self-cleavage
U130A A141U	1.13
A124U A142G	1.51
A124U U143A	1.75
A124U U143C	1.26
A129C U132C	0.96
U130C U134A	1
G127A A141G	0.99
A129G A140C	0.74
A129G A140U	1.8
C133U A141G	1.4
U132A A141U	0.14
A129G G135A	1.63
U130A U143C	1.25
A124G A142G	0.72
U130C A141G	1.55
C133U A142G	1.14
A138G C146U	1.32
U134C A136G	1.75
U134C A136U	1.26
C133A	1.37
C133U	1.16
A141C A142C	0.71
A136C U143A	1.51
G125U A142G	1.33

Variant	self-cleavage
U130A U134A	1.33
U130A U134C	1.84
G126A U130C	1.41
A124U A129G	1.72
U130C A140U	0.32
U130C A140G	1.49
A140G U143A	0.79
A124G U130C	1.58
A124U G127U	1.62
U130A U132C	1.41
U134A C146U	0.6
G139C	1.53
G139U	1.31
G139A	0.89
A129U C133A	1.26
A138U A140G	1.2
U134C U143C	1.21
U134C U143A	1.37
A140G C145U	0.62
A140G C145A	1.28
A124U C131A	0.96
A129U U132A	0.04
A129U U132C	1.3
A141G U143C	1.31

Variant	self-cleavage
C145A	0.95
C145U	1.32
C145G	0.55
C133U A136G	0.49
G135A A140G	1.18
A124U A136G	1.43
G137A A138G	1.38
A124G C146A	0.84
A129G C146U	1.59
C128A U130C	1.11
G135U U143C	1.63
U130A C145U	1.79
A129C G135A	2.11
U130C C131U	1.28
A140G A141G	0.53
A124G U143C	0.62
A124G U143A	0.98
A140G A142C	1.4
A140G A142G	1.17
U134C A138U	1.65
U132G A141G	1.22
G125U A136G	0.79
G135A A138G	1.82
A129U	1.4

Variant	self-cleavage
A129C	1.67
A129G	1.52
C131U U143G	0.59
A129G A141C	2.06
U130G U143C	1.5
U134A A142G	1.18
C131U A136G	1.39
A141G C146U	1.31
U132C A141U	0.63
A129G C131U	0.92
A136G A142C	1.08
U130C C133U	1.42
C131G A142G	0.36
U130C C146U	1.52
A129G A136U	2.26
A141C U143A	1.79
A136U A142G	1.52
G125A A129G	1.38
G125A A129U	0.46
A129C U134A	1.59
A129C U134C	1.54
G127A C128U	1.13
G125U A138G	2.25
C133U A140G	1.05

Variant	self-cleavage
G127C U132C	1.99
A140G G144A	0.92
G125A C146U	1.36
C131U A138G	1.36
C131A G135A	1.55
G125U G144U	1.72
G127U U143C	1.66
U130C A136G	1.66
A138G U143A	1.45
A136G U143C	1.47
A140C	0.65
A140G	1.07
A140U	1.26
G126U A140G	0.66
U132A U134C	1.61
G125U U134C	1.2
G127A C145A	1.32
U134A G135U	1.21
U134A U143C	0.63
U134A U143A	0.77
G127A U130C	1.31
A136G A140U	1.29
A136G A140G	1.51
U130C G139A	1.5

Variant	self-cleavage
C128U A129G	1.65
A124U A141U	1.27
G135U A140U	1.13
U132C G144A	1.86
A129G A142G	1.67
A138G A142G	1.39
A141U A142G	1.79
A129G C145U	0.99
A129G C145G	1.65
C128U U132C	1.37
C133A C145A	1.51
A124G G125A	0.75
G127A A136U	1.65
G127A A136G	1.5
U143C G144A	2.03
G139U A140G	1.23
G127A A138U	1.5
A129U A141G	1.34
A129C U130C	1.02
A124U U134A	1.31
A129U A142U	2.13
A129U U134G	1.53
A129U U134C	1.22
A129U U134A	1.37

Variant	self-cleavage
U132A G139A	1.33
G127A A140U	1.26
A138U A142C	2.14
U132C A142G	1.49
A140U C145U	1.63
C128U A141U	1.62
U132C A136G	1.47
U132C A136U	1.46
G125U U143C	1.08
U132A A140G	1.41
G139A A141G	1.58
G126C A129G	2.02
U130A G137A	1.84
U130A A142G	1.48
A141G A142G	1.45
A141G A142U	1.36
U132C U143A	1.35
U132C U143C	1.24
A142U	1.22
A142G	1.21
A142C	0.53
U132C G135A	1.19
A136G	1.27
A136U	1.23

Variant	self-cleavage
A136C	1.34
U134C G144A	1.18
A124U A138U	1.37
A124U A138G	1.79
C128U A136U	1.67
U134A A138G	1.63
U134A A138U	1.72
A138G A141G	1.25
A138G A141U	1.43
A129U U143A	1.59
A129U U143C	1.64
C131U A142G	1.61
G125A A140U	0.61
A124G G139A	1.84
C133A A140C	1.3
A124U U132A	1.56
A129U A140U	0.88
A129G U134G	1.65
U130C A138G	1.75
U130C A138U	1.36
G135A A136G	1.61
G125A U130C	1.69
G125A U130A	1.61
U134C A142G	1.42

Variant	self-cleavage
U132C U134A	0.73
U132C U134C	1.35
A124G A140U	0.94
U134C A140U	1.02
A124G A141G	1.39
U132C C133A	1.14
U132C C133U	1.4
U130C G135U	0.97
A124G G144C	0.68
G127U	1.24
G127A	1.16
G127C	1.45
G125A A138G	1.01
U132G A138G	1.35
A140C A141G	0.41
G127U A138G	1.29
A140U A142G	1.73
U132A G144A	1.82
A138U U143G	1.5
A138U U143C	1.23
A129G U132A	1.54
A129G A138U	2.12
A129U U130C	1.49
U143A C145U	1.39
